Key:
Format in all cases: biochemical
[1] = Enzyme-catalyzed hydrolysis of 3-hydroxyisovaleryl-CoA into 3-hydroxyisovaleric acid; details: 10 mM 3-hydroxyisovaleryl-CoA, 1 mg/ml thioesterase, 30 min, 30° C.
Method: The gene coding for acyl-CoA thioesterase II from Pseudomonas putida was synthesized and the corresponding enzymes were further produced according to the procedure described in Example 1.
Provided vectors contained a stretch of 6 histidine codons after the methionine initiation codon. The corresponding enzymes were further produced according to the procedure described in Example 1.
(§1) The enzymatic assays were conducted in total reaction volume of 0.2 ml
(§2) The standard reaction mixture contained:
10 mM 3-hydroxyisovaleryl-CoA
1 mg/ml of purified thioesterase
The assays were incubated for 30 min with shaking at 30° C. and the reactions were stopped by the addition of 0.1 ml of acetonitrile. The amount of 3-hydroxyisovaleryl-CoA was quantified according to HPLC-based procedure described in Example 3.
In these conditions, the 3-hydroxyisovaleryl-CoA retention time was 4.40 min and coenzyme A (CoA) retention time was 3.96 min.
Additionally, 3-hydroxyisovaleric acid production was analyzed according to the procedure described en Example 6.

[2] = Enzyme-catalyzed hydrolysis of 3-methylcrotonyl-CoA into 3-methylcrotonic acid and free coenzyme A; details: 10 mM 3-methylcrotonyl-CoA, 1 mg/ml thioesterase, 30 min, 30° C.
Text: The gene coding for acyl-CoA thioesterase II from Pseudomonas putida was synthesized according to the procedure as described in Example 1.
The vector pCA24N which contained the gene encoding acyl-CoA thioesterase 2 (TesB) from Escherichia coli was purchased from NAIST (Nara Institute of Science and Technology, Japan, ASKA collection). This vector provided contained a stretch of 6 histidine codons after the methionine initiation codon.
The corresponding enzymes were produced according to the procedure described in Example 1.
(§3) The enzymatic assays were conducted in a total reaction volume of 0.2 ml.
as §2
10 mM 3-methylcrotonyl-CoA (Sigma-Aldrich)
1 mg/ml of purified recombinant thioesterase.
Control assays were performed in which either no enzyme was added or no substrate was added.
The assays were incubated for 30 min with shaking at 30° C., the reactions were stopped by the addition of 0.1 ml of acetonitrile and the samples were then analyzed by HPLC-based procedure.
HPLC analysis was performed using an 1260 Infinity LC System (Agilent), equipped with a column heating module and a UV detector (210 nm). […] The separation was performed using mixed A (H2O containing 8.4 mM sulfuric acid) and B (acetonitrile) solutions in a linear gradient (0% B at initial time 0 min→70% B at 8 min). […]

[3] = Kinetic studies of the hydration reaction of 3-methylcrotonyl-CoA; details: 0-4 mM 3-methylcrotonyl-CoA, 0.01 mg/ml enzyme, 30° C., pH 7.0
Method: as §1, §2
0-4 mM 3-methylcrotonyl-CoA
0.01 mg/ml 3-hydroxypropionyl-CoA dehydratase from Metallosphaera sedula.
Assays were incubated for 0, 2, 4, 8, 16 min with shaking at 30° C. and the reactions were stopped by the addition of 100 μl of acetonitrile. The amount of 3-hydroxyisovaleryl-CoA was quantified according to HPLC-based procedure described in Example 3.
The graph depicting 3-hydroxyisovaleryl-CoA formation as a function of time at different substrate concentrations is shown in the FIG. 15.

[4] = Formation of 3-hydroxyisovaleryl phosphate from 3-hydroxyisovaleryl-CoA and phosphate (MS); details: 10 mM 3-hydroxyisovaleryl-CoA, mass spectrometry
Method: The studied enzymatic reaction was carried out under the following conditions:
10 mM 3-hydroxyisovaleryl-CoA (3-hydroxy-3-methylbutyryl-CoA)
The purified phosphate butyryltransferase from B. subtilis was resuspended in 5 mM potassium phosphate pH 7.5.
A control assay without enzyme was performed in parallel.
The enzymatic assay was initiated by the addition of 20 μl of enzyme preparation into 20 μl of reaction mixture. The formation of 3-hydroxyisovaleryl phosphate (3-hydroxy-3-methylbutyryl phosphate) was analyzed by Mass Spectrometry (MS). 5 μl of the assay was introduced into the mass spectrometer via a loop injection.
Flow injection analyses were performed using a Dionex Ultimate chromatographic system (Thermo Fisher Scientific) at a flow rate of 100 μL/min with a mobile phase composed of H2O containing 10 mM ammonium formate pH 9.45 and acetonitrile 75:25 v/v. Detection was performed with a Q-exactive spectrometer (Thermo Fisher Scientific) fitted with an electrospray ionization source (negative ionization mode at a resolution of 70000 m/Δm, FWHM at m/z 200). Non-resonant induced dissociation experiments—Higher-energy C-trap dissociation (HCD)—were acquired at normalized collision energy of 10%. Raw data were manually inspected using the Qualbrowser module of Xcalibur version 3.0 (Thermo Fisher Scientific). […]

[5] = Conversion of 3-hydroxyisovaleryl-CoA and ADP into 3-hydroxyisovaleric acid and ATP, phosphate butyryltransferase from Bacillus subtilis with butyrate kinases; details: 4 mM 3-hydroxyisovaleryl-CoA, 4 mM ADP, 0.2 mg/ml each enzyme, 20 min, 30° C.
Method: as §3, §2
(§4) 50 mM potassium phosphate buffer pH 7.5
4 mM 3-hydroxyisovaleryl-CoA
(§5) 0.2 mg/ml of purified phosphate butyryltransferase from Bacillus subtilis
(§6) 0.2 mg/ml of purified butyrate kinase from Lactobacillus casei or Geobacillus sp.
A series of controls were performed in parallel (Assays C-H; Table 4).
The assays were then incubated for 20 min with shaking at 30° C.
(§7) After an incubation period, the reactions were stopped by heating the reaction medium 4 min at 90° C. The samples were centrifuged, filtered through a 0.22 μm filter and the clarified supernatants were transferred into a clean vial for further analysis. The consumption of ADP and 3-hydroxyisovaleryl-CoA, and the formation of ATP, 3-hydroxyisovaleric acid and free coenzyme A (CoA-SH) were followed by using HPLC-based methods.
HPLC analysis was performed using 1260 Infinity LC System (Agilent), equipped with column heating module and RI detector. 2 μl of samples were separated on Polaris C18-A column (150×4.6 mm, 5 μm particle size, column temp. 30° C.) with a mobile phase flow rate of 1.5 ml/min. The separation was performed using 8.4 mM sulfuric acid in H2O/MeOH mixed solution (99/1) (V/V). In these conditions, the retention time of ADP, ATP and 3-hydroxyisovaleric acid were 2.09 min, 2.26 min and 5.01 min, respectively. […]

[6] = Conversion of 3-methylcrotonyl-CoA and ADP into 3-methylcrotonic acid and ATP, phosphate butyryltransferase from Bacillus subtilis with butyrate kinases; details: 4 mM 3-methylcrotonyl-CoA, 4 mM ADP, 0.2 mg/ml each enzyme, 20 min, 30° C.
Method: as §3, §2, §4
4 mM 3-methylcrotonyl-CoA
as §5, §6
Assays were then incubated for 20 min with shaking at 30° C.
as §7, with “3-methylcrotonyl-CoA,” for “3-hydroxyisovaleryl-CoA,”, “3-methylcrotonic” for “3-hydroxyisovaleric”
HPLC analysis was performed using the 1260 Infinity LC System (Agilent) equipped with a column heating module and an RI detector. 2 μl of samples were separated on a Polaris C18-A column (150×4.6 mm, 5 μm particle size, column temp. 30° C.) with a mobile phase flow rate of 1.5 ml/min. The consumption of ADP and the formation of ATP were followed by HPLC analysis according to the methods described in Example 10.
HPLC analysis was performed using the 1260 Infinity LC System (Agilent) equipped with a column heating module and a UV detector (260 nm). […]

B1: tesB Pseudomonas putida: acyl-CoA thioesterase II from Pseudomonas putida, Uniprot Q88DR1 (protein, listed as Pseudomonas putida)
chain: MSHVLDDLVDLLSLESIEENLFRGRSQDLGFRQLYGGQVLGQSLSAASQTVEDARHVHSLHGYFLRPGDASLPVVYSVDRVRDGGSFSTRRVTAIQKGQTIFTCSASFQYDEEGFEHQAQMPDVVGPENLPTEVELAHAMADQLPERIRDKVLCAKPIEIRPVTERDPFNPKPGDPVKYAWFRADGNLPDVPALHKYMLAYASDFGLLTTALLPHGKSVWQRDMQIASLDHSLWFHGNLRADQWLLYATDSPWAGNSRGFCRGSIFNQAGQLVASSSQEGLIRHRKDWA
- Conversion, % [1]: 58%
- 3-methylcrotonic acid produced [2]: 3.1 mM

B2: tesB Escherichia coli: acyl-CoA thioesterase 2 from E. coli, Uniprot P0AGG2 (protein, listed as Escherichia coli)
chain: MSQALKNLLTLLNLEKIEEGLFRGQSEDLGLRQVFGGQVVGQALYAAKETVPEERLVHSFHSYFLRPGDSKKPIIYDVETLRDGNSFSARRVAAIQNGKPIFYMTASFQAPEAGFEHQKTMPSAPAPDGLPSETQIAQSLAHLLPPVLKDKFICDRPLEVRPVEFHNPLKGHVAEPHRQVWIRANGSVPDDLRVHQYLLGYASDLNFLPVALQPHGIGFLEPGIQIATIDHSMWFHRPFNLNEWLLYSVESTSASSARGFVRGEFYTQDGVLVASTVQEGVMRNHN
modifications: strain K12
notes: acyl-CoA thioesterase 2 from E. coli, Uniprot P0AGG2
- Conversion, % [1]: 52%
- 3-methylcrotonic acid produced [2]: 0.6 mM

B3: 3-Hydroxypropionyl-CoA dehydratase from Metallosphaera sedula: recombinant His-tagged 3-hydroxypropionyl-CoA dehydratase (EC 4.2.1.116) from Metallosphaera sedula, Uniprot A4YI89 (protein, listed as Metallosphaera sedula)
chain: MEFETIETKKEGNLFWITLNRPDKLNALNAKLLEELDRAVSQAESDPEIRVIIITGKGKAFCAGADITQFNQLTPAEAWKFSKKGREIMDKIEALSKPTIAMINGYALGGGLELALACDIRIAAEEAQLGLPEINLGIYPGYGGTQRLTRVIGKGRALEMMMTGDRIPGKDAEKYGLVNRVVPLANLEQETRKLAEKIAKKSPISLALIKEVVNRGLDSPLLSGLALESVGWGVVFSTEDKKEGVSAFLEKREPTFKGK
modifications: His tag; strain ATCC 51363 /DSM 5348
notes: recombinant His-tagged 3-hydroxypropionyl-CoA dehydratase (EC 4.2.1.116) from Metallosphaera sedula, Uniprot A4YI89
- Km [3]: 300 µM
- kcat for 3-methylcrotonyl-CoA [3]: 10 s⁻¹

B4: phosphate butyryltransferase from Bacillus subtilis: phosphate butyryltransferase (EC 2.3.1.19) from Bacillus subtilis (strain 168), Uniprot P54530 (protein, listed as Bacillus subtilis)
chain: MKLKDLIGKASIHKNKTIAVAHAEDEEVIRAVKLAAEHLSARFLLTGDSKKLNELTSSMQGHQVEIVHANTPEESAKLAVRAVHHKTADVLMKGNVPTSVLLKAVLNRQEGLRSASVLSHVAVFDIPDFDRLMFVTDSAMNIAPSLEELRQILQNAVHVAHAVGNNMPKAAALAAVETVNPKMEATVNAAALAQMYKRGQIKGCIVDGPLALDNAVSQIAAAQKKISGDVAGNADILLVPTIEAGNILYKSLIYFAKASVAAVITGAKAPIALTSRADSAENKLYSIALAICASEEYTH
modifications: strain 168
notes: phosphate butyryltransferase (EC 2.3.1.19) from Bacillus subtilis (strain 168), Uniprot P54530
- generation of 3-hydroxyisovaleryl phosphate [4]: generation of 3-hydroxyisovaleryl phosphate in the enzyme catalyzed assay was proved by MS technique
- production of 3-hydroxyisovaleric acid and ATP [5]: significant production of 3-hydroxyisovaleric acid, without simultaneous generation of ATP
- production of 3-methylcrotonic acid and ATP [6]: significant production of 3-methylcrotonic acid without a simultaneous generation of ATP

— patent US10676765B2, “Methods for producing 3-hydroxy-3-methylbutyric acid” (Global Bioenergies, priority 2015, dated 2020)
